The text below walks through data of US20250381223A1.

Test [1] concerns the target Her2-Fc. Description: flow cytometry of T cells with 0.5 µg 4D5.BBZ mRNA and 15 µg 4.1 mRNA; Her2-Fc + PE-anti-IgG-Fc; E1 without mRNA: 1.26. For orientation: Flow cytometry measures light scatter and fluorescence of single cells or particles in a stream.
Test [2] concerns the target Her2-Fc. Description: flow cytometry of T cells with 0.5 µg 4D5.BBZ mRNA and 15 µg 4.2 mRNA; Her2-Fc + PE-anti-IgG-Fc; E1 without mRNA: 1.26.
The target in test [3] is Her2-Fc. In words: flow cytometry of T cells with 0.5 µg 4D5.BBZ mRNA and 15 µg 4.3 mRNA; Her2-Fc + PE-anti-IgG-Fc; E1 without mRNA: 1.26.
Test [4] addresses Her2-Fc. In words: flow cytometry of T cells with 0.5 µg 4D5.BBZ mRNA and 15 µg 4.4 mRNA; Her2-Fc + PE-anti-IgG-Fc; E1 without mRNA: 1.26.
In test [5] the target is Her2-Fc. In words: flow cytometry of T cells with 0.5 µg 4D5.BBZ mRNA and 15 µg 4.5 mRNA; Her2-Fc + PE-anti-IgG-Fc; E1 without mRNA: 1.26.
Test [6] deals with Her2-Fc. Description: flow cytometry of T cells with 0.5 µg 4D5.BBZ mRNA and 15 µg 4.6 mRNA; Her2-Fc + PE-anti-IgG-Fc; E1 without mRNA: 1.26.
The target in test [7] is Her2-Fc. In words: flow cytometry of T cells with 0.5 µg 4D5.BBZ mRNA and 15 µg 4.7 mRNA; Her2-Fc + PE-anti-IgG-Fc; E1 without mRNA: 1.26.
In test [8] the target is Her2-Fc. Description: flow cytometry of T cells with 0.5 µg 4D5.BBZ mRNA and 15 µg 4.8 mRNA; Her2-Fc + PE-anti-IgG-Fc; E1 without mRNA: 1.26.
Test [9] deals with Her2-Fc. In words: flow cytometry of T cells with 0.5 µg 4D5.BBZ mRNA and 15 µg 8.6 mRNA; Her2-Fc + PE-anti-IgG-Fc; E1 without mRNA: 1.26.
For the next test, the target named is CD40-Fc (human) (UniProt P25942). Description: flow cytometry of T cells electroporated with 0.5 µg 4D5.BBZ mRNA alone; CD40-Fc + PE-anti-IgG-Fc; E1 without mRNA: 0.27.
The target of test [10] is Her2-Fc. In words: flow cytometry of T cells electroporated with 0.5 µg 4D5.BBZ mRNA alone; Her2-Fc + PE-anti-IgG-Fc; E1 without mRNA: 1.26.
Test [11] addresses Her2-Fc. In words: flow cytometry of T cells with 0.5 µg 4D5.BBZ mRNA and 5 µg A40C28 mRNA; Her2-Fc + PE-anti-IgG-Fc; E1 without mRNA: 1.26.
The target in test [12] is Her2-Fc. In words: flow cytometry of T cells with 0.5 µg 4D5.BBZ mRNA and 15 µg 1412-4D11 mRNA; Her2-Fc + PE-anti-IgG-Fc; E1 without mRNA: 1.26.

Take 4D5.BBZ (scFv): the % of cells in the positive gate with Her2-Fc [1] was 89.6; in the test with Her2-Fc [2] it was 88.8; in the test with Her2-Fc [3], 91.4; with Her2-Fc [4] it was 91.1; in the test with Her2-Fc [5], 85.5; in the test with Her2-Fc [6], 87.9. Besides, the % of cells in the positive gate was determined as 82.6 with Her2-Fc [7]; 81.6 with Her2-Fc [8]; 86.1 with Her2-Fc [9]; 0.67 in the test with CD40-Fc (human); 94.9 in the test with Her2-Fc [10]; 94.6 with Her2-Fc [11]. Further, in the test with Her2-Fc [12], the % of cells in the positive gate stood at 18.5.
